{
  "source": "paper PMC2909360",
  "about": "(Molecular microbiology, 2010)",
  "test_in_all_cases": "cell-based or functional assay",
  "key": {"[1]": {"target": "recombinant human cathepsin L (human, UniProt P07711 18-333)", "sequence (P07711 18-333)": "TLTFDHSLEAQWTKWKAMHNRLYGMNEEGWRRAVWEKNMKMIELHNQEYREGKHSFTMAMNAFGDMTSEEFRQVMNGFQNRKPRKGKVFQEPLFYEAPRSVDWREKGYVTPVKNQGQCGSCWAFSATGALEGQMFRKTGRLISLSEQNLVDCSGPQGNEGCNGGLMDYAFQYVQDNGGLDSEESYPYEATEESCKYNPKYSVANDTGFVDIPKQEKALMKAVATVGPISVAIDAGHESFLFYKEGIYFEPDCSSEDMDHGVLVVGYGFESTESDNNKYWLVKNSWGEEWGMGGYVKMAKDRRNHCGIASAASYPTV"}, "[2]": {"target": "recombinant human cathepsin S (human, UniProt P25774 17-331)", "sequence (P25774 17-331)": "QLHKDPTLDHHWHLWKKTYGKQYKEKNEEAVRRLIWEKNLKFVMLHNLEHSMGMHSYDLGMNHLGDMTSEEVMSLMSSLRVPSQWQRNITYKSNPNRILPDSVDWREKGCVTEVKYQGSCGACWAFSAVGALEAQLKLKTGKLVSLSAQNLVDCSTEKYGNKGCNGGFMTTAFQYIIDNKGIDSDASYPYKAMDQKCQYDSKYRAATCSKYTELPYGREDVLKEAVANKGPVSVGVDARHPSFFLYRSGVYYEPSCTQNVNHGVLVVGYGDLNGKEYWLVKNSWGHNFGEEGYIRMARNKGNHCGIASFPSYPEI"}, "purified papain": {"target": "T1, purified papain (UniProt P00784 134-345)", "T1 sequence (looked up)": "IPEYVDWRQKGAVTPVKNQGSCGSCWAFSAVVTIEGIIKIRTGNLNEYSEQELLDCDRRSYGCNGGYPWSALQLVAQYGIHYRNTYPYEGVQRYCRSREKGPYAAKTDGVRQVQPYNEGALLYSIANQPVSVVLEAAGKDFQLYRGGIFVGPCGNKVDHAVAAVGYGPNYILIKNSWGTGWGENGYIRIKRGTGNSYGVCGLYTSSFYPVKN"}, "[3]": {"target": "purified bovine cathepsin C (bovine)", "sequence (Q3ZCJ8 25-463)": "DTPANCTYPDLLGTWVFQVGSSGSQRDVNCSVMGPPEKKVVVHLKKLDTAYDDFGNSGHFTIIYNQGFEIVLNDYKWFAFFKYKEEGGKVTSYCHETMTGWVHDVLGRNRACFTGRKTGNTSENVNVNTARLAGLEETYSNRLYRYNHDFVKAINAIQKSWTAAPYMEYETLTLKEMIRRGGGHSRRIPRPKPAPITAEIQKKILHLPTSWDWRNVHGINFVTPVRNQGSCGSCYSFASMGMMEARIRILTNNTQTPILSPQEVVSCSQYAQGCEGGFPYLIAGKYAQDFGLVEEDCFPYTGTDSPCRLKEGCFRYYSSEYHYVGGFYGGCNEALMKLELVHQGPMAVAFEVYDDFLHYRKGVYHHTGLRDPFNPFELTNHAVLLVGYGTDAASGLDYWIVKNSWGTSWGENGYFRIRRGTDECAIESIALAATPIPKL"}},
  "data": [
    {"binder": "sialostatin L2 (natural protein) MELALRGGYRERSNQDDPEYLELAHYATSTWSAQQPGKTHFDTVVEVLKVETQTVAGTNYRLTLKVAESTCELTSTYNKDTCQANANAAQRTCTTVIYRNLQGEKSISSFECAAA", "values": [
      {"measurement": "IC50 of inhibition of enzyme activity (fluorogenic substrate)", "setting": "[1]", "value": 1.1, "unit": "nM"},
      {"measurement": "IC50 of inhibition of enzyme activity (fluorogenic substrate)", "setting": "[2]", "value": 114, "unit": "nM"},
      {"measurement": "IC50 of inhibition of enzyme activity (fluorogenic substrate)", "setting": "purified papain", "value": 0.4, "unit": "nM"},
      {"measurement": "IC50 of inhibition of enzyme activity (fluorogenic substrate)", "setting": "[3]", "value": 4720, "unit": "nM"}
    ]},
    {"binder": "sialostatin L (natural protein) TGVFGGYSERANHQANPEFLNLAHYATSTWSAQQPGKTHFDTVAEVVKVETQVVAGTNYRLTLKVAESTCELTSTYNKDTCLPKADAAHRTCTTVVFENLQGDKSVSPFECEAA", "values": [
      {"measurement": "IC50 of inhibition of enzyme activity (fluorogenic substrate)", "setting": "[1]", "value": 1.6, "unit": "nM"},
      {"measurement": "IC50 of inhibition of enzyme activity (fluorogenic substrate)", "setting": "[2]", "value": 0.2, "unit": "nM"},
      {"measurement": "IC50 of inhibition of enzyme activity (fluorogenic substrate)", "setting": "purified papain", "value": 0.5, "unit": "nM"},
      {"measurement": "IC50 of inhibition of enzyme activity (fluorogenic substrate)", "setting": "[3]", "value": 160, "unit": "nM"}
    ]}
  ]
}
